Test results published in patent US20050042205A1 (Genentech, Inc., published 2005).

Target: rat luteal LH/CG receptor (LH/CG-R) expressed from the cloned cDNA (expression vector pCLHR) in transiently … (rat, UniProt P16235)
Assay: 125I-CG binding to intact 293 cells transfected with the LH/CG receptor cDNA

Kd: 0.08 to 0.16 nM
B1: human choriogonadotropin, highly purified (CR-123; 12,780 IU/mg) (ligand)
chain 1: not shown
chain 2: SKEPLRPRCRPINATLAVEKEGCPVCITVNTTICAGYCPTMTRVLQGVLPALPQVVCNYRDVRFESIRLPGCPRGVNPVVSYAVALSCQCALCRRSTTDCGGPKDHPLTCDDPRFQDSSSSKAPPPSLPSPSRLPGPSDTPILPQ
